According to patent US20170320946A1:

How the values were obtained:
[1] = biological target: huTREM-1 expressed as amino-terminal FLAG peptide fusion protein on transfected COS-7 or 293 cells (human) (UniProt Q9NP99); assay: FACS of 293 cells transiently transfected with TREM-1-FLAG, stained with anti-FLAG mAb M2; isotype-matched control set to the lower quadrant
[2] = biological target: huTREM-2 expressed as amino-terminal FLAG peptide fusion protein on transfected 293 cells (human) (UniProt Q9NZC2); assay: FACS of 293 cells transiently transfected with TREM-2-FLAG, stained with anti-FLAG mAb M2; isotype-matched control set to the lower quadrant

ANTI-FLAG mAb M2 (antibody)
percentage of cells stained (upper right quadrant) [1]: 21.5% | percentage of cells stained (upper right quadrant) [2]: 17.9%
